± gives the standard error. Fewer inactive variants are shown than the library holds.
B1: glmS ribozyme (parent)
chain: AUAAAAGCGCCAGAACUACAGAAAUGUAGUUGACGAGGAGGAGGUUUAUCGAAUUUUCGGCGGAUGCCUCCAAA

Variants of: B1
Assay: self-cleavage kobs at 2500 uM GlcN6P; higher = faster cleavage; RNA array
Details: with glucosamine-6-phosphate
Procedure, shortened: (§1)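 Tiles bearing barcoded ribozyme variants, transcribed in situ by E. coli RNA polymerase on sequenced MiSeq chips, were imaged over ~14 h at 37 °C using a hybridised Cy3 probe. Glucosamine-6-phosphate was supplied at 40 μM to 10 mM in HEPES/KCl/Mg(OAc)2 buffer. kobs came from one- or two-exponential decay fits to normalised per-tile medians, and weighted Michaelis–Menten fits then provided kcat and KM.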

Row | Variant | self-cleavage kobs at 2500 uM GlcN6P [s⁻¹]
1 | G32A G40A U69G | < 1e-05
2 | U31C A42U U56C G66C | < 1e-05
3 | A33U G51C A53C | < 1e-05
4 | U31G U54A C68U | 0.000161 ± 5.7e-05
5 | C16G G43U G62A | < 1e-05
6 | U30C G37C G38C | < 1e-05
7 | G32C A36C G51C A53C G66A | < 1e-05
8 | C16G G40U U69G | < 1e-05
9 | C16G U30C G32C C58G | 5.09e-05 ± 2.2e-05
10 | A33U C67A U69A | < 1e-05
11 | U30G U49G U54A | 4.83e-05 ± 2.3e-05
12 | G37A A39C G40C G41A U45C G51U C58G | < 1e-05
13 | G32U U46C | 3.86e-05 ± 1.4e-05
14 | G29A U57G C70G | 0.000123 ± 5e-05
15 | U31G G44U G51C C58U G63U | < 1e-05
16 | G29U A64G C67G | 6.02e-05 ± 1.3e-05
17 | G32U A48U C67U | < 1e-05
18 | U30A A33U C34A A36C G37C U57G | < 1e-05
19 | C16U G29U C70G C71A | 7.2e-05 ± 1.7e-05
20 | G32U G59A C68G | 0.000713 ± 0.00028
21 | G29C G62C U65A | < 1e-05
22 | G29U U31A U69G C70A | 8.63e-05 ± 2.8e-05
23 | U30G G32U G35A A53G | < 1e-05

Row | Variant | self-cleavage kobs at 2500 uM GlcN6P [s⁻¹]
24 | C16U U46C C61G | < 1e-05
25 | C34A G35A C67G C68A C71A | 0.000155 ± 6.4e-05
26 | G35U A48G C50G | 0.000328 ± 0.00011
27 | G37A C50G U54C | 0.000123 ± 4.8e-05
28 | G32A U57C | 5.22e-05 ± 1.9e-05
29 | C16G G40U U55A G60U | 0.000989 ± 0.00047
30 | A33G U46G C68U C71G | 0.000183 ± 5.3e-05
31 | C34A A48U C68A C71G | < 1e-05
32 | G29A U31A G38C | < 1e-05
33 | U30A C58A C67U | 4.25e-05 ± 1.9e-05
34 | U31A U47C U56C | 0.000498 ± 0.00011
35 | G29A A48U A53U C58A G59U | < 1e-05
36 | G29A U30C A48U C58U | < 1e-05
37 | C16U U57A G59C | < 1e-05
38 | G29U U46A U56A G62U C68U | < 1e-05
39 | G29U G44A U46C U65C | < 1e-05
40 | G35A A42G U45G | < 1e-05
41 | A33C G40A A48C G51C G60C | < 1e-05
42 | G32U G35C U46G | < 1e-05
43 | U30A U49C G66C | < 1e-05
44 | G35A G38C C58U | < 1e-05
45 | G35U U56A C71U | < 1e-05
46 | A36G A52U A64G | < 1e-05

Row | Variant | self-cleavage kobs at 2500 uM GlcN6P [s⁻¹]
47 | U31G G44C G59C | < 1e-05
48 | C16A C34A C70U | < 1e-05
49 | A33G A42U C70U | < 1e-05
50 | U30C G66A C67G | 4.46e-05 ± 1.2e-05
51 | C16U G29C U55A | 0.00365 ± 0.00064
52 | C16U G37U A42G | < 1e-05
53 | A33C G35A U56A | < 1e-05
54 | C16G A36U G60A | < 1e-05
55 | G37A G62C A64U | < 1e-05
56 | G35C G43U U69G | < 1e-05
57 | G29C A33G A53U A64G U69G | 0.000129 ± 4.1e-05
58 | G35A U56A C68G | < 1e-05
59 | U30A G40C A53G U56C | < 1e-05
60 | U31A A39U C70G | 0.000232 ± 7.5e-05
61 | A33G C34A U46A C61A | < 1e-05
62 | C34G U47C G66A | < 1e-05
63 | G29C C34U G35A G40U G59C | < 1e-05
64 | U30A G32C A39G | 9.38e-05 ± 3.4e-05
65 | C16U U57A | 6.81e-05 ± 2.8e-05
66 | U31C A33U U46A U57C C70U C71G | < 1e-05
67 | G32U G35A A64G C71U | < 1e-05
68 | G29U C58G C71A | 0.000118 ± 3.2e-05
69 | G35U U49C C50U C58G C61U | < 1e-05

Row | Variant | self-cleavage kobs at 2500 uM GlcN6P [s⁻¹]
70 | G29C U31A | 0.000502 ± 0.0001
71 | C16G U30C C34G U55C C61U C67U | < 1e-05
72 | G29A G41U C68U | < 1e-05
73 | G29U U55C G60C C68G | < 1e-05
74 | C16U A36U A39U A52U | < 1e-05
75 | C34U A39C G59A | < 1e-05
76 | U31A C34A C71U | < 1e-05
77 | G26U U30A A52G C71G | 0.000299 ± 0.00014
78 | C34G U57G C70G | 0.00021 ± 4.8e-05
79 | C16U A52G A53G C61U | < 1e-05
80 | C16U U30C C50A | < 1e-05
81 | C34U G60A C68U | < 1e-05
82 | C16G U31A C34A | < 1e-05
83 | A33U A53G G62C U65C | < 1e-05
84 | G32U G44C U47G | < 1e-05
85 | A33G A52G G63A | < 1e-05
86 | C16G A39C C61U G63C | < 1e-05
87 | G29U A33C G44C | 0.000325 ± 0.00014
88 | G26U C58U | 6.46e-05 ± 1.7e-05
89 | G26U G41C | 0.000123 ± 3.4e-05
90 | C34A C68G | < 1e-05
91 | G29U G35A A42U | < 1e-05
92 | U31C G37A G59A C61U G66A | < 1e-05

Row | Variant | self-cleavage kobs at 2500 uM GlcN6P [s⁻¹]
93 | G29C G40C U54A | 6.31e-05 ± 2.5e-05
94 | U30C C61U U65A | < 1e-05
95 | G37C G41U A48C | < 1e-05
96 | G29C G51U C67G | 5.96e-05 ± 2.8e-05
97 | U31G C68U C71U | 7.95e-05 ± 3.1e-05
98 | G29U C50U C61U | < 1e-05
99 | G37A U49A A52G | < 1e-05
100 | A36G U46A C70A | < 1e-05
101 | U30A G41U U55G G59A U69A | < 1e-05
102 | A33U A39C G62C | < 1e-05
103 | U31C A64C U65G | < 1e-05
104 | U31G A48U A52C | < 1e-05
105 | C16U C34G C50G | 0.00012 ± 5e-05
106 | U30C U55C U56G U69C | < 1e-05
107 | U30G U46G C58U | < 1e-05
108 | G37A A53G U55G U65G | 8.03e-05 ± 1.8e-05
109 | G35C G44U A52G U54A C67U | < 1e-05
110 | A33U G37A U55A C61U | < 1e-05
111 | C34U G63U A64G | 0.000111 ± 3.8e-05
112 | C19A A53C C71A | 0.000384 ± 0.00012
113 | C34G G35C G66A | < 1e-05
114 | U30G A42G U65G C67U | 0.000104 ± 3.7e-05
115 | C16U A39U U46C A64G C71G | 9.88e-05 ± 3.4e-05

Row | Variant | self-cleavage kobs at 2500 uM GlcN6P [s⁻¹]
116 | G37C U45A G60U A64C | < 1e-05
117 | C19A G32C | 4.68e-05 ± 1.6e-05
118 | C16A G43U A53U G60A C68A | < 1e-05
119 | A36G G40U U45G | < 1e-05
120 | U30G U31A G35A A39G G51C G59A | < 1e-05
121 | G35U U54C C58A | < 1e-05
122 | G32C U54C G63U | < 1e-05
123 | A36C U49G G63C | < 1e-05
124 | G29C G63C | < 1e-05
125 | A36C G43C C50G C68A | < 1e-05
126 | U30G C58G G60U | < 1e-05
127 | C16A G37C U55C | < 1e-05
128 | C16U A39U G44U C67A | 0.0154 ± 0.0045
129 | C16A G32A G37U | < 1e-05
130 | G35U G40A G41U U45G A53G | < 1e-05
131 | G29C A42U U47A | < 1e-05
132 | G29C C61G G62A C70G | 0.000307 ± 0.00012
133 | G37A U49G A52U G59A | < 1e-05
134 | A36U A42U G59U | < 1e-05
135 | G32U G38U C67U | < 1e-05
136 | C34A G41U A42C | < 1e-05
137 | A33C C61A G62U | < 1e-05
138 | G35C A42U U55A C58G | < 1e-05

Row | Variant | self-cleavage kobs at 2500 uM GlcN6P [s⁻¹]
139 | A36C G41A U56G G60A C68U | < 1e-05
140 | G29U G32C A53G C70U | 6e-05 ± 1.4e-05
141 | A36C G37A A39C C50U A53C | < 1e-05
142 | C19A C34A | < 1e-05
143 | G35C A48G A53U | < 1e-05
144 | A36C A48G C70G | < 1e-05
145 | G32U A48U G51C | < 1e-05
146 | C16G G40U G41U | < 1e-05
147 | G37A A64C C67G | < 1e-05
148 | U30C G40A G43A C68A | < 1e-05
149 | C16U U30C G35C U45A U55G G59U | < 1e-05
150 | G32A A39U U69A | < 1e-05
151 | G32U A53C U55A | 5.38e-05 ± 1.8e-05
152 | A36G A52C C68U | < 1e-05
153 | G32A U69C | 0.000191 ± 7.8e-05
154 | G32C G37U C70G | 9.68e-05 ± 4.2e-05
155 | G32C C58U U65G | < 1e-05
156 | G32U A39U C50A | < 1e-05
157 | G35U U45C G51C G59U | < 1e-05
158 | G35U A36U A53U G63C | < 1e-05
159 | A33C G40A A52U C61G | < 1e-05
160 | A33G A42U U49A G60A | < 1e-05
161 | A33C G37C U55C | < 1e-05

Variants of: B1
Assay: self-cleavage kobs at 10000 uM GlcN6P; higher = faster cleavage; RNA array
Details: with glucosamine-6-phosphate
Procedure, shortened: as §1

Row | Variant | self-cleavage kobs at 10000 uM GlcN6P [s⁻¹]
162 | G32A G40A U69G | < 1e-05
163 | U30C G37C G38C | < 1e-05
164 | G32U U46C | 0.000136 ± 1.8e-05
165 | U30A A33U C34A A36C G37C U57G | < 1e-05
166 | C34A A48U C68A C71G | < 1e-05
167 | U31A U47C U56C | 0.000333 ± 6.1e-05
168 | G29C C34U G35A G40U G59C | < 1e-05
169 | C16U U57A | 0.000194 ± 4.1e-05
170 | G29C U31A | 0.000731 ± 0.00017
171 | G26U C58U | 7.64e-05 ± 1.4e-05
172 | U31C G37A G59A C61U G66A | < 1e-05
173 | G37A U49A A52G | < 1e-05
174 | A36C G41A U56G G60A C68U | < 1e-05
175 | A36C G37A A39C C50U A53C | < 1e-05
176 | G32A U69C | 0.000717 ± 0.00016
